Measurements: article PMC2566858 (Nucleic Acids Research, 2008)
Numbering of substitutions follows the chain as printed.

T1: rGyr_fl Y851F (full-length reverse gyrase) (Thermotoga maritima, UniProt O51934 1-1104, Y851F)
T1 sequence: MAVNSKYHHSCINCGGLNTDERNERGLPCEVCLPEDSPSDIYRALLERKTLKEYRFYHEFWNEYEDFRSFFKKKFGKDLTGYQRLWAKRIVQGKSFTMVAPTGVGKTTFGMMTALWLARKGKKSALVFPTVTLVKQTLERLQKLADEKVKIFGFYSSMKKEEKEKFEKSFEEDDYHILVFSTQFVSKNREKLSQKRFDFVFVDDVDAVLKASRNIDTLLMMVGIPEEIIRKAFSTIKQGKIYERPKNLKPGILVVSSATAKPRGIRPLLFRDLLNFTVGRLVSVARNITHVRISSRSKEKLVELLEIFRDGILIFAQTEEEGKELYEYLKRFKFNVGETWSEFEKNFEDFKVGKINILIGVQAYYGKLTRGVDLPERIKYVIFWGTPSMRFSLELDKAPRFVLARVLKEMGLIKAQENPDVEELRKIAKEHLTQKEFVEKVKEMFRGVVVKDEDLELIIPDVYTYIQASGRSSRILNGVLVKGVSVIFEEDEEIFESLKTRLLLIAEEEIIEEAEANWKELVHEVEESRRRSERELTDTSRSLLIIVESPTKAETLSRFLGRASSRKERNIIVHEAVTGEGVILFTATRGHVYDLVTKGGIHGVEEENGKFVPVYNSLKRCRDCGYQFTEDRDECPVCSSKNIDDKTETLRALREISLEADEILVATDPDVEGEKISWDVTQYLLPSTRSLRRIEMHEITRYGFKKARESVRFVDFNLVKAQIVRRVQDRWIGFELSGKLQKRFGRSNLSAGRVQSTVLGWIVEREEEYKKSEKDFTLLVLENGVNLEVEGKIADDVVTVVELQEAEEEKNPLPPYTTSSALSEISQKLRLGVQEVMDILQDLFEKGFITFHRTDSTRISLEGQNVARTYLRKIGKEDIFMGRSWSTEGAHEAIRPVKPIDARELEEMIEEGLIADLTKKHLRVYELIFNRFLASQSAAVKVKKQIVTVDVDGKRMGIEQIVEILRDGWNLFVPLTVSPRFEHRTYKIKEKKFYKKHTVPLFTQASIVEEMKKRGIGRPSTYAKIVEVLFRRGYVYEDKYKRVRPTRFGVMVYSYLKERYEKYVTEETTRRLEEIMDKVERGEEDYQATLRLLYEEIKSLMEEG

T2: rGyr_hel (reverse gyrase helicase-like domain) (Thermotoga maritima, UniProt O51934 59-541)
T2 sequence: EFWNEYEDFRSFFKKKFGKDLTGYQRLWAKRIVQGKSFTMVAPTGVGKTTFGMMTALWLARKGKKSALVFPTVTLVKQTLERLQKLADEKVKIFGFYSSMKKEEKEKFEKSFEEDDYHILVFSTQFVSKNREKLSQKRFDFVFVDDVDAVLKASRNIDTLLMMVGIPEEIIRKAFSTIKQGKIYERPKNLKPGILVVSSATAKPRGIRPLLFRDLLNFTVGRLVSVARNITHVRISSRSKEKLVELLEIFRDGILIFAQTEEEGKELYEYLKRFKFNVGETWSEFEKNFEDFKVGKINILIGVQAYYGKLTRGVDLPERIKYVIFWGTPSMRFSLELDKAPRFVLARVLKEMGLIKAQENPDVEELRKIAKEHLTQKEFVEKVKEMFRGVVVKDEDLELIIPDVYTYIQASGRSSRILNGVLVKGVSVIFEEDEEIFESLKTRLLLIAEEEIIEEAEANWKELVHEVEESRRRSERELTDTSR

T3: rGyr_fl K106Q/Y851F (Thermotoga maritima, UniProt O51934 1-1104, K106Q;Y851F)
T3 sequence: T1 sequence with K106Q

B1: 60-base ssDNA (ssDNA)
DNA: AAGCCAAGCTTCTAGAGTCAGCCCGTGATATTCATTACTTCTTATCCTAGGATCCCCGTT
B2: 60 bp dsDNA (dsDNA)
DNA 1: B1 DNA
DNA 2: AACGGGGATCCTAGGATAAGAAGTAATGAATATCACGGGCTGACTCTAGAAGCTTGGCTT

How the values were obtained:
Test in all cases: fluorescence anisotropy
[1] = molecular target: T1, rGyr_fl Y851F (full-length reverse …)
[2] = molecular target: T2, rGyr_hel (reverse gyrase helicase-like …)
[3] = molecular target: T3, rGyr_fl K106Q/Y851F

Row | Binder | Kd [1] [nM] | Kd [2] [nM] | Kd [3] [nM]
1 | B1 | 39 ± 1 | 280 ± 10 | –
2 | B2 | – | – | 490 ± 90
